Values of other authors, collected in publication PMC10813780.

Target: TLR4 (Homo sapiens) (UniProt O00206)
Sequence of UniProt O00206 (O00206 24-839): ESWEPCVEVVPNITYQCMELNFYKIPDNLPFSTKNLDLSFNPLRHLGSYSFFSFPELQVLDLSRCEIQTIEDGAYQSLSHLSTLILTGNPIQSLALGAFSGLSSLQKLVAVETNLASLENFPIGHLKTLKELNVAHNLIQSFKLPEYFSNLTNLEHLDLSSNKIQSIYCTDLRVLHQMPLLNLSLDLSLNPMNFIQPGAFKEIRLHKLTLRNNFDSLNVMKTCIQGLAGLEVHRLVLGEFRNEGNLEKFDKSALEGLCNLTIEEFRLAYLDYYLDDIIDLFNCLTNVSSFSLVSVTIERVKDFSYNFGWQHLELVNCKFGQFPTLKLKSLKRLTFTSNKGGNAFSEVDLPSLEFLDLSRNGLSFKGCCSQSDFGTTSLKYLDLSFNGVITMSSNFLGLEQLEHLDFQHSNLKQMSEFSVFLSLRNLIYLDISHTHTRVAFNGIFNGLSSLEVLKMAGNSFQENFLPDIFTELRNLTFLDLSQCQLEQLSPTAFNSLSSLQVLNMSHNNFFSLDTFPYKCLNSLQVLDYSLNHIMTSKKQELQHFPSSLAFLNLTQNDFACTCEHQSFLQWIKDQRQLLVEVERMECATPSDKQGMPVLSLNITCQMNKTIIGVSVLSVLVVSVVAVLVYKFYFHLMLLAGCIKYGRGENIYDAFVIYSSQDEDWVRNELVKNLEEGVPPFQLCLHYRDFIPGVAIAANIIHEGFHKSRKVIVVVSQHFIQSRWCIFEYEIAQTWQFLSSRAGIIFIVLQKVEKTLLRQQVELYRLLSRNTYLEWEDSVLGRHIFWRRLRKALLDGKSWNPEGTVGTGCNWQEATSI

- Kd: 430 nM
Substance: API5 (from UniProt Q9BZZ5)
